Measurements taken from paper PMC11257444 (bioRxiv, 2024).

How the values were obtained:
Assay in all cases: SPR
[1] = molecular target: HIR-1 ectodomain (purified) (C. elegans) (UniProt O76385)
[2] = molecular target: ZIG-5 (purified, SPR) (C. elegans) (UniProt Q9XXD7)
[3] = molecular target: ZIG-4 (purified, SPR) (C. elegans) (UniProt G5ECB1)
[4] = molecular target: NRX-1 LNS6 domain (purified) (C. elegans)
ZIG-4 (purified, SPR) = molecular target: T1, ZIG-4 (purified, SPR) (C. elegans, UniProt G5ECB1 17-253)
T1 sequence: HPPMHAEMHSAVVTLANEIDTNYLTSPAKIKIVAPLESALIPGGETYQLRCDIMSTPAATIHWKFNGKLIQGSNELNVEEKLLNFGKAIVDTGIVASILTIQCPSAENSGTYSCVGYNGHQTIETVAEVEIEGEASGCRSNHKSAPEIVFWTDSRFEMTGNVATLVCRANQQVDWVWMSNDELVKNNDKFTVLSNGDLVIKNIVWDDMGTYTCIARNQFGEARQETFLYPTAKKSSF

ZIG-5 (purified, SPR) = molecular target: T2, ZIG-5 (purified, SPR) (C. elegans, UniProt Q9XXD7 26-260)
T2 sequence: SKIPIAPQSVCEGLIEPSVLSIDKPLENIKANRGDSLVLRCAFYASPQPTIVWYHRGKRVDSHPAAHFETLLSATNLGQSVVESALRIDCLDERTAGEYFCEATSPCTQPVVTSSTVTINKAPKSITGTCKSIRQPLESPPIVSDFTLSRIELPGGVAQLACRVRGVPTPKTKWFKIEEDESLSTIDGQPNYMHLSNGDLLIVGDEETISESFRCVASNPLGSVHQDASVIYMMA

“B0222.11 (purified) (from UniProt Q4PIU5) (ligand)” gave a Kd [1] of 0.5 nM.

INS-1 (purified, SPR) (ligand) gave a Kd [2] of 3 nM and a Kd [3] greater than 1000 nM.

B1: NLG-1 ectodomain (purified) (receptor)
chain: YDVRSVTTSWGMVRGEVVSPEGDDLPPVAQYLGIPYGVAPTGQYRFNMAISAAKWTHMPKDARKVSPVCIQTDMPELSETKAFKHTSAQRFDFNHRLLPHLKKQSEDCLYMNIYVPERLEISRDNYLPVMVIVHGEEYGWGTGNAFNGTTLAAYGHIIVVTLNYRLGVFGFLGRCESSSCSGNSGISDLVSALTMLNVILPSFGGDSKSVTLAGWGSGASLVSLLMASPLTQPGRRLFRRAILLDGSALSPWAISQNPQQYFMQLAEELACAPKNRTSSFNDNVDTIVRCMQVHSSENITKAVLKIDVPTFLSGFAPIVDGQLIPNKPQVSFSTQYGSLFREIDLLVGISSNPSHHMISNEDLKVGISKEKRMRIFRSLVRNLYDFHREEILASIINEYTDWENPRDHPKSIRNGVLNALSDVLYTAPLIETLRSHSADEVRKEANTFMFAFAHETRSWSQEQPNSGIRGSLSGDIVPYIFGYPLAQGDSEERLYSGFNTDDKGISKVMMHYVSNFVKSGDPSKPNPMSKNFPMGDVFHSTAWPQFDQPNREAYLEITDRPRVKNYYRNAQVGFWNNFIPQLHKNGKETEPVGEEHHLLSDHFRKDSYFGKTRHFSSYANLPFPPPPMPPSPPPELTTKPKPSESPTTLQTTTESEKAAAGSFTGKAL
For B1, the Kd [4] was 48000 nM.

B2: INS-6 (purified, SPR) (ligand)
chain: VPAPGETRACGRKLISLVMAVCGDLCNPQEGKDIATECCGNQCSDDYIRSACCP
With B2 the Kd (ZIG-4 (purified, SPR)) was 0.056 nM and the Kd (ZIG-5 (purified, SPR)) was greater than 1000 nM.
